# Measured values from publication PMC9482650, “Quantitative fragmentomics allow affinity mapping of interactomes” (Nature Communications, 2022).
# Target: T1, DLG3_1, Q92796
# T1 sequence (Q92796 125-227, limits assumed, looked up): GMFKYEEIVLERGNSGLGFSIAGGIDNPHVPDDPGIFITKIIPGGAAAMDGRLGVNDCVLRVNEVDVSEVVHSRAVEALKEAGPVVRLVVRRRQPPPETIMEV
# Experiment: holdup assay
# Parameters: key: below the threshold = too weak to quantify, mostly under pKd 3.1 to 4
# Conditions: plain residues with an end cap or a label only (N-terminal biotin on a linker: ado-ado)
row,Binder,pKd
1,"PPYRHRNTVV [ERBB4, Q15303]",4.21
2,"RRISSLESEV [GRIN2C, Q14957]",4.37

# Target: MAGI1_1, Q96QZ7
# Sequence (Q96QZ7 1-106): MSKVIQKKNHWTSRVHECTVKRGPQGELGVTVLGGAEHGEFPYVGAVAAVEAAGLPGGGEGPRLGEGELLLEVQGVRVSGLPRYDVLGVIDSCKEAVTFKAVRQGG
# Experiment: holdup assay
# Parameters: key: below the threshold = too weak to quantify, mostly under pKd 3.1 to 4
# Conditions: plain residues with an end cap or a label only (N-terminal biotin on a linker: ado-ado)
row,Binder,pKd
1,"PPYRHRNTVV [ERBB4, Q15303]",below the threshold
2,"RRISSLESEV [GRIN2C, Q14957]",below the threshold

# Target: T2, SYNJ2BP, P57105
# T2 sequence (P57105 8-110, limits assumed, looked up): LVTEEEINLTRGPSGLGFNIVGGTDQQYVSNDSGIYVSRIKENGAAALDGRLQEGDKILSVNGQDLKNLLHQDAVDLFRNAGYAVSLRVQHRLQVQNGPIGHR
# Experiment: holdup assay
# Parameters: key: below the threshold = too weak to quantify, mostly under pKd 3.1 to 4
# Conditions: plain residues with an end cap or a label only (N-terminal biotin on a linker: ado-ado)
row,Binder,pKd
1,"PPYRHRNTVV [ERBB4, Q15303]",4.36
2,"RRISSLESEV [GRIN2C, Q14957]",5.38

# Target: T3, DLG3_3, Q92796
# T3 sequence (Q92796 374-475, limits assumed, looked up): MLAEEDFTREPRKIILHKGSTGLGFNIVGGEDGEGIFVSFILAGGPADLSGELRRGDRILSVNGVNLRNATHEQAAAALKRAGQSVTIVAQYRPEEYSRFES
# Experiment: holdup assay
# Parameters: key: below the threshold = too weak to quantify, mostly under pKd 3.1 to 4
# Conditions: plain residues with an end cap or a label only (N-terminal biotin on a linker: ado-ado)
row,Binder,pKd
1,"PPYRHRNTVV [ERBB4, Q15303]",4.16
2,"RRISSLESEV [GRIN2C, Q14957]",4.11

# Target: PICK1, Q9NRD5
# Sequence (Q9NRD5 17-115): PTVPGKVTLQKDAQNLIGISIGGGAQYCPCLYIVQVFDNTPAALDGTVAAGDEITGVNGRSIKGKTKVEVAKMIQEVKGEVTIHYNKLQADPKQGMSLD
# Experiment: holdup assay
# Parameters: key: below the threshold = too weak to quantify, mostly under pKd 3.1 to 4
# Conditions: plain residues with an end cap or a label only (N-terminal biotin on a linker: ado-ado)
row,Binder,pKd
1,"PPYRHRNTVV [ERBB4, Q15303]",below the threshold
2,"RRISSLESEV [GRIN2C, Q14957]",below the threshold

# Target: PDLIM1, O00151
# Sequence (O00151 1-87): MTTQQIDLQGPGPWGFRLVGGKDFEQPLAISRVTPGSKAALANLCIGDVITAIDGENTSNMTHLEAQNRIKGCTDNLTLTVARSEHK
# Experiment: holdup assay
# Parameters: key: below the threshold = too weak to quantify, mostly under pKd 3.1 to 4
# Conditions: plain residues with an end cap or a label only (N-terminal biotin on a linker: ado-ado)
row,Binder,pKd
1,"PPYRHRNTVV [ERBB4, Q15303]",below the threshold
2,"RRISSLESEV [GRIN2C, Q14957]",3.75

# Target: FRMPD2_3, Q68DX3
# Sequence (Q68DX3 1073-1166): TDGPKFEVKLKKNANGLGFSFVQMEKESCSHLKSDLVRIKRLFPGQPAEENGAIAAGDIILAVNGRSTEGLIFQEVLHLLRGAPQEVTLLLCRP
# Experiment: holdup assay
# Parameters: key: below the threshold = too weak to quantify, mostly under pKd 3.1 to 4
# Conditions: plain residues with an end cap or a label only (N-terminal biotin on a linker: ado-ado)
row,Binder,pKd
1,"PPYRHRNTVV [ERBB4, Q15303]",below the threshold
2,"RRISSLESEV [GRIN2C, Q14957]",below the threshold

# Target: NOS1, P29475
# Sequence (P29475 9-101): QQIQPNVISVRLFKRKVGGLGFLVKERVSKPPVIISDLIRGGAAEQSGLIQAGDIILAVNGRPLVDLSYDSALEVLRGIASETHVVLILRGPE
# Experiment: holdup assay
# Parameters: key: below the threshold = too weak to quantify, mostly under pKd 3.1 to 4
# Conditions: plain residues with an end cap or a label only (N-terminal biotin on a linker: ado-ado)
row,Binder,pKd
1,"PPYRHRNTVV [ERBB4, Q15303]",3.64
2,"RRISSLESEV [GRIN2C, Q14957]",3.96

# Target: Inadl_8, Q8NI35
# Sequence (Q8NI35 1425-1530): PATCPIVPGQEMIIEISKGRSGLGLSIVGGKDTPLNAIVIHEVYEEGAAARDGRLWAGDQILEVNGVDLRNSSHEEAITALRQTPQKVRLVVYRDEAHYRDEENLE
# Experiment: holdup assay
# Parameters: key: below the threshold = too weak to quantify, mostly under pKd 3.1 to 4
# Conditions: plain residues with an end cap or a label only (N-terminal biotin on a linker: ado-ado)
row,Binder,pKd
1,"PPYRHRNTVV [ERBB4, Q15303]",4.29
2,"RRISSLESEV [GRIN2C, Q14957]",3.58

# Target: T4, NHERF3_1, Q5T2W1
# T4 sequence (Q5T2W1 4-100, limits assumed, looked up): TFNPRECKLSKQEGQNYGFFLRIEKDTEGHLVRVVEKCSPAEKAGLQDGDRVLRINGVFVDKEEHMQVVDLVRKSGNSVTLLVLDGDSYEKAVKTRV
# Experiment: holdup assay
# Parameters: key: below the threshold = too weak to quantify, mostly under pKd 3.1 to 4
# Conditions: plain residues with an end cap or a label only (N-terminal biotin on a linker: ado-ado)
row,Binder,pKd
1,"PPYRHRNTVV [ERBB4, Q15303]",below the threshold
2,"RRISSLESEV [GRIN2C, Q14957]",3.82

# Target: T5, RHPN1, Q8TCX5
# T5 sequence (Q8TCX5 508-602, limits assumed, looked up): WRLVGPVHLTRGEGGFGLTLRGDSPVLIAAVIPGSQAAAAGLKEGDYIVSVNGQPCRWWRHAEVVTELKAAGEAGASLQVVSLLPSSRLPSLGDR
# Experiment: holdup assay
# Parameters: key: below the threshold = too weak to quantify, mostly under pKd 3.1 to 4
# Conditions: plain residues with an end cap or a label only (N-terminal biotin on a linker: ado-ado)
row,Binder,pKd
1,"PPYRHRNTVV [ERBB4, Q15303]",3.6
2,"RRISSLESEV [GRIN2C, Q14957]",4.66

# Target: T6, TIAM2, Q8IVF5
# T6 sequence (Q8IVF5 885-986, limits assumed, looked up): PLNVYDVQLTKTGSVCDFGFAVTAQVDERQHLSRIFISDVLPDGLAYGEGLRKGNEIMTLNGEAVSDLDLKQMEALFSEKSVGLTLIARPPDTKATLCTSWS
# Experiment: holdup assay
# Parameters: key: below the threshold = too weak to quantify, mostly under pKd 3.1 to 4
# Conditions: plain residues with an end cap or a label only (N-terminal biotin on a linker: ado-ado)
row,Binder,pKd
1,"PPYRHRNTVV [ERBB4, Q15303]",below the threshold
2,"RRISSLESEV [GRIN2C, Q14957]",4.13

# Target: GRIP2_4, Q9C0E4
# Sequence (Q9C0E4 446-548): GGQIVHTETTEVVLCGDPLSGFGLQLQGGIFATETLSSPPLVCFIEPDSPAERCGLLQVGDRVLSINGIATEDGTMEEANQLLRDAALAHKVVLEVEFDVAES
# Experiment: holdup assay
# Parameters: key: below the threshold = too weak to quantify, mostly under pKd 3.1 to 4
# Conditions: plain residues with an end cap or a label only (N-terminal biotin on a linker: ado-ado)
row,Binder,pKd
1,"PPYRHRNTVV [ERBB4, Q15303]",below the threshold
2,"RRISSLESEV [GRIN2C, Q14957]",below the threshold

# Target: IL16_3, Q14005
# Sequence (Q14005 1107-1207): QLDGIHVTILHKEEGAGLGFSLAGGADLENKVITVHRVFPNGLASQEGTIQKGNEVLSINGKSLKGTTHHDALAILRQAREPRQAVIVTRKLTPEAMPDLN
# Experiment: holdup assay
# Parameters: key: below the threshold = too weak to quantify, mostly under pKd 3.1 to 4
# Conditions: plain residues with an end cap or a label only (N-terminal biotin on a linker: ado-ado)
row,Binder,pKd
1,"PPYRHRNTVV [ERBB4, Q15303]",below the threshold
2,"RRISSLESEV [GRIN2C, Q14957]",below the threshold

# Target: GRID2IP_2, A4D2P6
# Sequence (A4D2P6 272-370): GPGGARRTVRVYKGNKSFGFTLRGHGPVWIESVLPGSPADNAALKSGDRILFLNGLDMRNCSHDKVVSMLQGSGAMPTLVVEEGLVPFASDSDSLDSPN
# Experiment: holdup assay
# Parameters: key: below the threshold = too weak to quantify, mostly under pKd 3.1 to 4
# Conditions: plain residues with an end cap or a label only (N-terminal biotin on a linker: ado-ado)
row,Binder,pKd
1,"PPYRHRNTVV [ERBB4, Q15303]",below the threshold
2,"RRISSLESEV [GRIN2C, Q14957]",3.54

# Target: T7, MPP2, Q14168
# T7 sequence (Q14168 180-250, limits assumed, looked up): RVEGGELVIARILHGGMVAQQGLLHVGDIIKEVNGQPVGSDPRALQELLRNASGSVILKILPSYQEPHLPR
# Experiment: holdup assay
# Parameters: key: below the threshold = too weak to quantify, mostly under pKd 3.1 to 4
# Conditions: plain residues with an end cap or a label only (N-terminal biotin on a linker: ado-ado)
row,Binder,pKd
1,"PPYRHRNTVV [ERBB4, Q15303]",below the threshold
2,"RRISSLESEV [GRIN2C, Q14957]",below the threshold

# Target: T8, GRIP1_3, Q9Y3R0
# T8 sequence (Q9Y3R0 247-346, limits assumed, looked up): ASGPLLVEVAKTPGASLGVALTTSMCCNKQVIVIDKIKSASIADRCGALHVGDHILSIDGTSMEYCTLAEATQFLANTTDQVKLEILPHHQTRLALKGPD
# Experiment: holdup assay
# Parameters: key: below the threshold = too weak to quantify, mostly under pKd 3.1 to 4
# Conditions: plain residues with an end cap or a label only (N-terminal biotin on a linker: ado-ado)
row,Binder,pKd
1,"PPYRHRNTVV [ERBB4, Q15303]",below the threshold
2,"RRISSLESEV [GRIN2C, Q14957]",below the threshold

# Target: T9, GRIP1_5, Q9Y3R0
# T9 sequence (Q9Y3R0 568-668, limits assumed, looked up): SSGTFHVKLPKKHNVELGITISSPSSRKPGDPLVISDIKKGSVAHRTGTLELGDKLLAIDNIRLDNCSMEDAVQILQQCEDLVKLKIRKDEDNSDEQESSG
# Experiment: holdup assay
# Parameters: key: below the threshold = too weak to quantify, mostly under pKd 3.1 to 4
# Conditions: plain residues with an end cap or a label only (N-terminal biotin on a linker: ado-ado)
row,Binder,pKd
1,"PPYRHRNTVV [ERBB4, Q15303]",below the threshold
2,"RRISSLESEV [GRIN2C, Q14957]",below the threshold

# Target: GRIP2_5, Q9C0E4
# Sequence (Q9C0E4 544-642): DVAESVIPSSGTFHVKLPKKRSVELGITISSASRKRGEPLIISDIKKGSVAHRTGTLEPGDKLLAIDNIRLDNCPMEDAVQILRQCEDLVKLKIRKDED
# Experiment: holdup assay
# Parameters: key: below the threshold = too weak to quantify, mostly under pKd 3.1 to 4
# Conditions: plain residues with an end cap or a label only (N-terminal biotin on a linker: ado-ado)
row,Binder,pKd
1,"PPYRHRNTVV [ERBB4, Q15303]",below the threshold
2,"RRISSLESEV [GRIN2C, Q14957]",below the threshold

# Target: HTRA1, Q92743
# Sequence (Q92743 360-477): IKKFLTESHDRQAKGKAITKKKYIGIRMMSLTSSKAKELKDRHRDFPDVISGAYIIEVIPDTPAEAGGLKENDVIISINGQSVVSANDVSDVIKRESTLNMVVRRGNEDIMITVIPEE
# Experiment: holdup assay
# Parameters: key: below the threshold = too weak to quantify, mostly under pKd 3.1 to 4
# Conditions: plain residues with an end cap or a label only (N-terminal biotin on a linker: ado-ado)
row,Binder,pKd
1,"PPYRHRNTVV [ERBB4, Q15303]",4.13
2,"RRISSLESEV [GRIN2C, Q14957]",3.82

# Target: DLG4_1, P78352
# Sequence (P78352 62-152): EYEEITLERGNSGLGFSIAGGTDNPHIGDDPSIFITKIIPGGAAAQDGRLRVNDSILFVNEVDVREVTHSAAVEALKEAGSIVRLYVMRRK
# Experiment: holdup assay
# Parameters: key: below the threshold = too weak to quantify, mostly under pKd 3.1 to 4
# Conditions: plain residues with an end cap or a label only (N-terminal biotin on a linker: ado-ado)
row,Binder,pKd
1,"PPYRHRNTVV [ERBB4, Q15303]",4.88
2,"RRISSLESEV [GRIN2C, Q14957]",4.68

# Target: T10, LNX2_2, Q8N448
# T10 sequence (Q8N448 334-432, limits assumed, looked up): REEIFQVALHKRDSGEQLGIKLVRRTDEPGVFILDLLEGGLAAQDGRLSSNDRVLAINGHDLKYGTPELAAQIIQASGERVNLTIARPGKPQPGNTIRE
# Experiment: holdup assay
# Parameters: key: below the threshold = too weak to quantify, mostly under pKd 3.1 to 4
# Conditions: plain residues with an end cap or a label only (N-terminal biotin on a linker: ado-ado)
row,Binder,pKd
1,"PPYRHRNTVV [ERBB4, Q15303]",4.69
2,"RRISSLESEV [GRIN2C, Q14957]",below the threshold

# Target: AHNAK1, Q09666
# Sequence (Q09666 4-100): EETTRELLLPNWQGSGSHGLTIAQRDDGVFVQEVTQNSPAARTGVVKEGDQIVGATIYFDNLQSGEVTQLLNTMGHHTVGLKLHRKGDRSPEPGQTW
# Experiment: holdup assay
# Parameters: key: below the threshold = too weak to quantify, mostly under pKd 3.1 to 4
# Conditions: plain residues with an end cap or a label only (N-terminal biotin on a linker: ado-ado)
row,Binder,pKd
1,"PPYRHRNTVV [ERBB4, Q15303]",below the threshold
2,"RRISSLESEV [GRIN2C, Q14957]",below the threshold

# Target: SNX27, Q96L92
# Experiment: holdup assay
# Parameters: key: below the threshold = too weak to quantify, mostly under pKd 3.1 to 4
# Conditions: plain residues with an end cap or a label only (N-terminal biotin on a linker: ado-ado)
row,Binder,pKd
1,"PPYRHRNTVV [ERBB4, Q15303]",4.42
2,"RRISSLESEV [GRIN2C, Q14957]",4.97

# Target: T11, APBA1_2, Q02410
# T11 sequence (Q02410 742-832, limits assumed, looked up): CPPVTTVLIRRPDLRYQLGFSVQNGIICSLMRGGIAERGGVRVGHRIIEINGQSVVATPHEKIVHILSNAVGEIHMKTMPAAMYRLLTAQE
# Experiment: holdup assay
# Parameters: key: below the threshold = too weak to quantify, mostly under pKd 3.1 to 4
# Conditions: plain residues with an end cap or a label only (N-terminal biotin on a linker: ado-ado)
row,Binder,pKd
1,"PPYRHRNTVV [ERBB4, Q15303]",3.53
2,"RRISSLESEV [GRIN2C, Q14957]",3.75

# Target: T12, APBA1_1, Q02410
# T12 sequence (Q02410 651-752, limits assumed, looked up): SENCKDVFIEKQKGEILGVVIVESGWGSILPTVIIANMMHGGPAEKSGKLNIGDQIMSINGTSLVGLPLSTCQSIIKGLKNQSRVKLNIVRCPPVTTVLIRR
# Experiment: holdup assay
# Parameters: key: below the threshold = too weak to quantify, mostly under pKd 3.1 to 4
# Conditions: plain residues with an end cap or a label only (N-terminal biotin on a linker: ado-ado)
row,Binder,pKd
1,"PPYRHRNTVV [ERBB4, Q15303]",below the threshold
2,"RRISSLESEV [GRIN2C, Q14957]",below the threshold
